Source: US8642284

Assays:
[1] = target: histone H2A (calf thymus) (UniProt P0C0S9)
[2] = tested on: unacetylated histone H3 N-terminal tail peptide (residues 1-20)
[3] = target: histone H3 (calf thymus), intact protein (UniProt P68432)
histone H4 (calf thymus) = histone H4 (calf thymus) (UniProt P62803)
[4] = tested on: histone H3 N-terminal tail peptide (residues 1-20) di-acetylated at lysines 9 and 14
[5] = target: histone H2B (calf thymus) (UniProt P62808)

In the case of “recombinant 6xHis-tagged full-length yeast Sir2p”, the “ADP-ribosylation (transfer of 32P from NAD, SDS-PAGE)” value [1] is reported as “but not to H1, H2A and H4”, the “ADP-ribosylation of peptide (32P-NAD, thin layer chromatography)” value [2] is reported as “modified only the diacetylated H3 tail peptide (unacetylated peptide not modified)” and the “ADP-ribosylation (transfer of 32P from NAD, SDS-PAGE)” value [3] is reported as “transferred radioactive ADP-ribose to H2B and H3”. The “transfer of 32P from NAD (SDS-PAGE)” value [3] was 32P was transferred from NAD to intact histone H3, the “ADP-ribosylation (transfer of 32P from NAD, SDS-PAGE)” value (histone H4 (calf thymus)) was “but not to H1, H2A and H4” and the “ADP-ribosylation of peptide (32P-NAD, thin layer chromatography)” value [4] was “Both the yeast and mouse Sir2 modified only the diacetylated H3 tail peptide”. For the same substance, the “NAD-dependent deacetylation (HPLC, areas under peaks 1, 2 and 4)” value [4] was “at least 27% of the input peptide was deacetylated by Sir2p”, the “deacetylation of Lys9 in peak 4 (Edman sequencing)” value [4] was “about 23% of Lys9” and the “deacetylation of Lys14 in peak 4 (Edman sequencing)” value [4] was 27% of Lys 14. The “ADP-ribosylation (transfer of 32P from NAD, SDS-PAGE)” value [5] was “transferred radioactive ADP-ribose to H2B and H3” and the “ADP-ribosylation (transfer of 32P from NAD, SDS-PAGE)” value (histone H1 (calf thymus)) was “but not to H1, H2A and H4”.
